pKd: −log10 of the molar value.
Legend:
CIMPR = CIMPR (Homo sapiens, UniProt P11717); assay: CIMPR plate binding assay
Protocol: In addition to having a greater percentage of rhGAA that can bind to the CIMPR, it is important to understand the quality of that interaction. […] Briefly, CIMPR-coated plates were used to capture GAA. Varying concentrations of rhGAA were applied to the immobilized receptor and unbound rhGAA was washed off. The amount of remaining rhGAA was determined by GAA activity.

[1] = test system: normal and Pompe fibroblast cell lines; assay: Cellular uptake of rhGAA in normal and Pompe fibroblast cell lines; type: cell-based
Protocol: The relative cellular uptake of ATB200 and Lumizyme® rhGAA were compared using normal and Pompe fibroblast cell lines. […] After 16-hr incubation, external rhGAA was inactivated with TRIS base and cells were washed 3-times with PBS prior to harvest. Internalized GAA measured by 4MU-α-Glucoside hydrolysis and was graphed relative to total cellular protein and the results appear in FIGS. 11A-B.

[2] = Apparent plasma half-life in vivo
Gaa knockout mice [3] = assay: Glycogen reduction in Gaa-knockout mice; type: in vivo, mouse
From the text: Animals were given two IV bolus administrations (every other week); tissues were harvested two weeks after the last dose and analyzed for acid α-glucosidase activity and glycogen content.
Tissues were collected 14 days after last enzyme dose for glycogen measurement.

Gaa knockout mice [4] = assay: Muscle physiology and morphology in Gaa-knockout mice (LAMP1, PAS, vacuoles); type: in vivo, mouse
Protocol: Control mice were treated with vehicle alone. Soleus, quadriceps and diaphragm tissue is harvested two weeks after the last dose of recombinant human acid α-glucosidase. […] Semi-thin sections of quadriceps muscle embedded in epoxy resin (Epon) were stained with methylene blue and observed by […] (1000×) to determine the extent of the presence of vacuoles. Quadriceps muscle samples were analyzed immunohistochemically to determine levels of the autophagy markers microtubule-associated protein 1A/1B-light chain 3 phosphatidylethanolamine conjugate (LC3A II) and p62, the insulin-dependent glucose transporter GLUT4 and the insulin-independent glucose transporter GLUT1. […] Control mice were treated with vehicle alone. Cardiac muscle tissue was harvested two weeks after the last dose of recombinant human acid α-glucosidase and analyzed for glycogen levels, by staining with periodic acid—Schiff reagent (PAS), and for lysosome proliferation, by measuring levels of LAMPI.

whole human blood = assay: Hemolysis in whole human blood; type: cell-based; settings: for percent hemolysis / OD540 With Blood / % Hemolysis: 1 hour at 37° C.; for % Hemolysis: water = 100%
Protocol: A series of dilutions of blood (1:2, 1:3, 1:4, 1:5, and 1:10) from a human donor were prepared in saline. […] Four types of samples were tested: the test article, placebo, positive control and negative control. […] The placebo was the same as the test article except there was no ATB200 rhGAA.
Samples were incubated without agitation for 1 hour at 37° C. After incubation, the tubes were centrifuged for 10 minutes at approximately 100× g at room temperature. The amount of hemoglobin in the supernatant of each sample was analyzed spectrophotometrically at 540 nm.
The percent hemolysis for the test article was determined by the formula: […]
The percent hemolysis of water plus blood is 100%. Saline was the negative control. Hemolysis less than or equal to 10% was considered insignificant. The percent hemolysis was calculated for each concentration of the test article and for the placebo.

[5] = Flocculation in human plasma; design: key to Plasma Macro (precipitation/coagulation score) / Plasma Micro (precipitation/coagulation score) / Plasma Pellet (score): 0=negative; 1=very slight precipitation or pellet; 2=minimal precipitation or pellet; 3=moderate precipitation or pellet; 4=significant precipitation or pellet
Protocol: (§1) Test article dosing solutions (3 concentrations) and the placebo (3 concentrations) were mixed with equal volumes of human plasma and serum from a donor. […] The placebo was the same as the test article except there was no ATB200 rhGAA.
(§2) One ml of each dose of test article or placebo, was mixed with an equal volume of plasma, serum and saline. Samples were incubated for 30 minutes at room temperature. After incubation the tubes were examined macroscopically and microscopically for precipitation or coagulation. An aliquot from each tube was centrifuged at 14,000 rpm in a microcentrifuge for 10 minutes. Each tube was examined for the presence or absence of a pellet. Precipitation/coagulation and pellets were scored as follows: • 0=negative • 1=very slight precipitation or pellet • 2=minimal precipitation or pellet • 3=moderate precipitation or pellet • 4=significant precipitation or pellet

[6] = Flocculation in human serum; design: key to Serum Macro (precipitation/coagulation score) / Serum Micro (precipitation/coagulation score) / Serum Pellet (score): 0=negative; 1=very slight precipitation or pellet; 2=minimal precipitation or pellet; 3=moderate precipitation or pellet; 4=significant precipitation or pellet
Protocol: as §1, §2

[7] = Safety and tolerability in patients with Pompe disease; type: in vivo, human; settings: alone and in combination with miglustat
Protocol: Mean total GAA protein and miglustat PK results from the first 8 Cohort 1 patients through Visit 9 and the first 2 Cohort 3 patients were assessed.

[8] = Flocculation study: test article mixed with equal volume of saline (macro, micro, pellet); design: key: 0=negative; 1=very slight precipitation or pellet; 2=minimal precipitation or pellet; 3=moderate precipitation or pellet; 4=significant precipitation or pellet
Protocol: as §1, §2

Sequence of CIMPR (P11717 41-2491, species assumed): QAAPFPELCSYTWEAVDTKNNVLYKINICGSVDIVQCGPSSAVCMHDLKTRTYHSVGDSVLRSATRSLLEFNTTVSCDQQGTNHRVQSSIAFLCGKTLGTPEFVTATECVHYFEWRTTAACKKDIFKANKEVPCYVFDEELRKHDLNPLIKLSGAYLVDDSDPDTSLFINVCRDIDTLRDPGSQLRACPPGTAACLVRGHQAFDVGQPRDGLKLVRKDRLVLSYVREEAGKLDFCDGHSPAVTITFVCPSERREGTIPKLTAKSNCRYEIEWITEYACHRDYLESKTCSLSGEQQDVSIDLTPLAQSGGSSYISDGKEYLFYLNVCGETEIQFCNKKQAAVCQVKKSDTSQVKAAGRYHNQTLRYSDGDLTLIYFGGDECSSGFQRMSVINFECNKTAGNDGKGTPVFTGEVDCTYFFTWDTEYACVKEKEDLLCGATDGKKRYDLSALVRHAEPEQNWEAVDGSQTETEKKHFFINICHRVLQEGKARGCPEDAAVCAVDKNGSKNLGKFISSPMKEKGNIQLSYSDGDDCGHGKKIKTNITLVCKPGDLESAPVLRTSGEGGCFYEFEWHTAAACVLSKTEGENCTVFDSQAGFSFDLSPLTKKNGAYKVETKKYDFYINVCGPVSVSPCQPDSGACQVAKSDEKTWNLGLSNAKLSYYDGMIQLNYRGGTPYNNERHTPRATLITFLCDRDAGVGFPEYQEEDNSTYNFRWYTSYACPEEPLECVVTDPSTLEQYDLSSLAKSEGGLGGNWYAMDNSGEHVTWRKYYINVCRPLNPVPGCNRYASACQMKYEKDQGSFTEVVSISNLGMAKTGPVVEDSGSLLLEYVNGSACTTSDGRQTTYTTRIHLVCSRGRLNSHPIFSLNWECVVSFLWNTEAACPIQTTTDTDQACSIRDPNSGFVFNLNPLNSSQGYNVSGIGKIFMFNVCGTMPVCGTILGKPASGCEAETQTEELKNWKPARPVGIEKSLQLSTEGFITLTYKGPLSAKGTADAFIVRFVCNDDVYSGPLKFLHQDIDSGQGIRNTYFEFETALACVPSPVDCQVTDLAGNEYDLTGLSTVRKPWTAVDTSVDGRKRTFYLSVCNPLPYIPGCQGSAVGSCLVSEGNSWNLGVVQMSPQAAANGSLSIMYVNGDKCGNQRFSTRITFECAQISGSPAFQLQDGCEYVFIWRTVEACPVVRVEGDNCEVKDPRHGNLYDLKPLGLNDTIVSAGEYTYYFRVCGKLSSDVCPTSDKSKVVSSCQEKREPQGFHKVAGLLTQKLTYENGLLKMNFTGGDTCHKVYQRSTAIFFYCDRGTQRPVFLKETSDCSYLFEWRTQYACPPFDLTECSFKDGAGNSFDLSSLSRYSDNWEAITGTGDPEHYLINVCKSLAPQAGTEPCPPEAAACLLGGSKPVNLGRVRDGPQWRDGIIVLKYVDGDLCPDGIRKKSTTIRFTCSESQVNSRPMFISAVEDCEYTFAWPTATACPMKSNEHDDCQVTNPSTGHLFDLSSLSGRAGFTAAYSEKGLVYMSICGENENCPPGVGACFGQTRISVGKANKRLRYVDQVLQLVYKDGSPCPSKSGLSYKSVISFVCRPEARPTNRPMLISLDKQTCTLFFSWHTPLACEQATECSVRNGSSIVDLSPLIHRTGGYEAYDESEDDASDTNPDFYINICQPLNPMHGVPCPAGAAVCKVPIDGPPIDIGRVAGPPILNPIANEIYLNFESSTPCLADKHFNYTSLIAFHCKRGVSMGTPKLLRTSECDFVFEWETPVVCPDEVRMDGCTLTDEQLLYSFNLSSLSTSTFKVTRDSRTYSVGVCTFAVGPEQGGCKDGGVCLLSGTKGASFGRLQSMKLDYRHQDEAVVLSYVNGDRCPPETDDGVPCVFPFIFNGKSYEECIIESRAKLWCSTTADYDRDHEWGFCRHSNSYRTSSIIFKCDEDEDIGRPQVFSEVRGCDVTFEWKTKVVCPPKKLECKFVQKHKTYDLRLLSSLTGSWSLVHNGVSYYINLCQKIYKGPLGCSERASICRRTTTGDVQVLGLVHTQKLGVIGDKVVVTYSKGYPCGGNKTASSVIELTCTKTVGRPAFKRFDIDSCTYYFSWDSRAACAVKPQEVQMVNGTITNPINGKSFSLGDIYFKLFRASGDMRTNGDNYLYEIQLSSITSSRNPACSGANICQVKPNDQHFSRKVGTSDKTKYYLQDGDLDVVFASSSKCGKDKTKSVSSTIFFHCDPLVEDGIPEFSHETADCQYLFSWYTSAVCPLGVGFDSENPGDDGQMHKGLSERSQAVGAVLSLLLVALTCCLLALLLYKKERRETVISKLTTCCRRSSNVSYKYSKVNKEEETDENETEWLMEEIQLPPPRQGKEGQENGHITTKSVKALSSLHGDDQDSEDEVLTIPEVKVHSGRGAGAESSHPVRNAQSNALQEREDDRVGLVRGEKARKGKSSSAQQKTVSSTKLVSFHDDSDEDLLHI

Substance: ATB200: recombinant human acid α-glucosidase expressed in CHO cells with increased content of M6P-bearing N-glycans
- pKd (CIMPR; binding to CIMPR, M6P receptor plate binding assays): 8.40 to 8.70
- binding to CIMPR (CIMPR; versus Lumizyme, FIG. 10A): bound to CIMPR significantly better than Lumizyme®
- concentration that saturates cellular receptors ([1]; 16-hr incubation): about 20 nM
- internalization into normal and Pompe fibroblast cells ([1]; versus Lumizyme): internalized to a greater degree than conventional Lumizyme® rhGAA
- apparent plasma half-life (t1/2) [2]: ~45 min
- relative reduction of glycogen in quadriceps and triceps (Gaa knockout mice [3]; 20 mg/kg IV every other week, 4 injections, FIG. 13): greater reduction of glycogen than Lumizyme®
- tissue glycogen depletion (Gaa knockout mice [3]; 5, 10, 20 mg/kg, two IV bolus administrations every other week): deplete tissue glycogen in acid α-glucosidase (Gaa) knockout mice in a dose-dependent fashion
- reduction of glycogen levels in skeletal muscles (Gaa knockout mice [3]; ATB200 10 and 20 mg/kg vs Lumizyme 20 mg/kg): significantly better reduction of glycogen levels in skeletal muscles than Lumizyme®
- lysosome proliferation (LAMP1) (Gaa knockout mice [4]; 20 mg/kg every other week, heart, diaphragm, soleus): reduction in lysosome proliferation in heart, diaphragm and skeletal muscle (soleus) tissue compared to conventional treatment with alglucosidase alfa
- punctate glycogen levels (PAS) (Gaa knockout mice [4]; 20 mg/kg every other week, heart, soleus): reduction in punctate glycogen levels in heart and skeletal muscle (soleus) tissue compared to conventional treatment with alglucosidase alfa
- number of vacuoles in muscle fiber in quadriceps (Gaa knockout mice [4]; 20 mg/kg, two IV bolus administrations): significantly reduced the number of vacuoles in muscle fiber in the quadriceps of Gaa knockout mice
- percent hemolysis (whole human blood; 300 μg/ml): −0.1%
- percent hemolysis (whole human blood; 600 μg/ml): −1.5%
- percent hemolysis (whole human blood; 1000 μg/ml): −1.5%
- OD540 Without Blood (whole human blood; Concentration 300 μg/mL): 0.001
- OD540 With Blood (whole human blood; Concentration 300 μg/mL): 0.016
- % Hemolysis (whole human blood; Concentration 300 μg/mL): −0.10%
- OD540 Without Blood (whole human blood; Concentration 600 μg/mL): 0.002
- OD540 With Blood (whole human blood; Concentration 600 μg/mL): 0.003
- % Hemolysis (whole human blood; Concentration 600 μg/mL): −1.52%
- OD540 Without Blood (whole human blood; Concentration 1000 μg/mL): 0.003
- OD540 With Blood (whole human blood; Concentration 1000 μg/mL): 0.004
- % Hemolysis (whole human blood; Concentration 1000 μg/mL): −1.52%
- Plasma Macro (precipitation/coagulation score) ([5]; Final concentration 300 μg/mL): 0
- Plasma Micro (precipitation/coagulation score) ([5]; Final concentration 300 μg/mL): 0
- Plasma Pellet (score) ([5]; Final concentration 300 μg/mL): 0
- Plasma Macro (precipitation/coagulation score) ([5]; Final concentration 600 μg/mL): 0
- Plasma Micro (precipitation/coagulation score) ([5]; Final concentration 600 μg/mL): 0
- Plasma Pellet (score) ([5]; Final concentration 600 μg/mL): 0
- Plasma Macro (precipitation/coagulation score) ([5]; Final concentration 1000 μg/mL): 0
- Plasma Micro (precipitation/coagulation score) ([5]; Final concentration 1000 μg/mL): 0
- Plasma Pellet (score) ([5]; Final concentration 1000 μg/mL): 0
- pellet after centrifugation ([5]; human plasma, 14,000 rpm 10 minutes): no pellets were observed
- precipitation, macroscopic and microscopic ([5]; human plasma, each ATB200 concentration, 30 minutes at room temperature): No precipitation was observed macroscopically or microscopically
- Serum Macro (precipitation/coagulation score) ([6]; Final concentration 300 μg/mL): 0
- Serum Micro (precipitation/coagulation score) ([6]; Final concentration 300 μg/mL): 0
- Serum Pellet (score) ([6]; Final concentration 300 μg/mL): 0
- Serum Macro (precipitation/coagulation score) ([6]; Final concentration 600 μg/mL): 0
- Serum Micro (precipitation/coagulation score) ([6]; Final concentration 600 μg/mL): 0
- Serum Pellet (score) ([6]; Final concentration 600 μg/mL): 0
- Serum Macro (precipitation/coagulation score) ([6]; Final concentration 1000 μg/mL): 0
- Serum Micro (precipitation/coagulation score) ([6]; Final concentration 1000 μg/mL): 0
- Serum Pellet (score) ([6]; Final concentration 1000 μg/mL): 0
- pellet after centrifugation ([6]; human serum, 14,000 rpm 10 minutes): no pellets were observed
- precipitation, macroscopic and microscopic ([6]; human serum, each ATB200 concentration, 30 minutes at room temperature): No precipitation was observed macroscopically or microscopically
- safety and tolerability [7]: safe and well tolerated
- Saline Macro (precipitation/coagulation score) ([8]; Final concentration 300 μg/mL): 0
- Saline Micro (precipitation/coagulation score) ([8]; Final concentration 300 μg/mL): 0
- Saline Pellet (score) ([8]; Final concentration 300 μg/mL): 0
- Saline Macro (precipitation/coagulation score) ([8]; Final concentration 600 μg/mL): 0
- Saline Micro (precipitation/coagulation score) ([8]; Final concentration 600 μg/mL): 0
- Saline Pellet (score) ([8]; Final concentration 600 μg/mL): 0
- Saline Macro (precipitation/coagulation score) ([8]; Final concentration 1000 μg/mL): 0
- Saline Micro (precipitation/coagulation score) ([8]; Final concentration 1000 μg/mL): 0
- Saline Pellet (score) ([8]; Final concentration 1000 μg/mL): 0

From patent publication US10512676B2, “Formulations comprising recombinant acid alpha-glucosidase” (Amicus Therapeutics, Inc., priority 2016, dated 2019)
